The values that follow come from patent publication US10221217.

pKd: −log10 of the molar value. Where only a bound is given, the exact number is not on record here.

In assay [1] the target is c1d1_v2 displayed on yeast (S. cerevisiae). Nature of the assay: Fab titration on yeast-displayed construct, flow cytometry.
The target in assay [2] is c1d1_b10disulf displayed on yeast (S. cerevisiae). The description is as above.
Assay [3] concerns the target c1d1_N386D displayed on yeast (S. cerevisiae). The assay is described as above.
Assay [4] addresses eOD_T257S_S375W (HIV-1 HxB2 (engineered)). Description: method not stated.
Another assay has as its target eOD_N276D. Nature of the assay: method not stated.
The next assay addresses eOD_L260F. Description: method not stated.
For the next assay, the target named is eOD_T257S_L260F_S375W. Description: method not stated.
Another assay deals with eOD_L260F_N276D. Description: method not stated.
Another assay addresses eOD_VD(-)_g3. Description: Kd, method not stated; construct from 293 cells.
Another assay has as its target eOD_VD(-)_g4. Description: Kd, method not stated; construct from 293 cells.
The target of another assay is eOD_VD(-)_g8. Description: Kd, method not stated; construct from 293 cells.
The target of the next assay is eOD_VD(-)_g2. Nature of the assay: Kd, method not stated; construct from 293 cells.
For a further assay, the target named is eOD_VD(-)_g6. Nature of the assay: Kd, method not stated; construct from 293 cells.
For another assay, the target named is eOD_VD(-)_g7. Description: Kd, method not stated; construct from 293 cells.
In a further assay the target is eOD_VD(-)_g5. Nature of the assay: Kd, method not stated; construct from 293 cells.
Assay [5] concerns the target c1d1_v2. Nature of the assay: SPR, IgG captured by anti-human IgG, construct as analyte. For orientation: In SPR one partner is held on a chip, and binding of the other changes the refractive index at the surface.
For assay [6], the target named is c1d1_minglyc. Described as above.
Assay [7] has as its target c1d1_N386D. The description is as above.
Another assay deals with c2d1_b10disulf. Described as above.
Assay [8] has as its target wild-type core GP120 (Human immunodeficiency virus type 1 group M subtype B (isolate HXB2) (HIV-1)) (UniProt P04578). The description is as above.
Assay [9] concerns the target ODml(N386) (Human immunodeficiency virus type 1 group M subtype B (isolate HXB2) (HIV-1)) (UniProt P04578). Described as above.
Assay [10] deals with eOD_VH1-2_v6.0 (HIV-1 HxB2 (engineered)). Nature of the assay: SPR, IgG captured by anti-human IgG, eOD as analyte, 1:1 fit with mass transport.
In assay [11] the target is eOD_N276D_N463D. Nature of the assay: method not stated; protein from 293 cells.
The target in assay [12] is ODml(N386) (Human immunodeficiency virus type 1 group M subtype B (isolate HXB2) (HIV-1)) (UniProt P04578). Nature of the assay: SPR (value differs from Table 1).
Assay [13] addresses eOD_VH1-2_v6.0 (HIV-1 HxB2 (engineered)). Nature of the assay: dissociation constant, SPR (FIG. 3).
The target in assay [14] is c1d1_N386D. Description: SPR and ITC.
In assay [15] the target is c1d1_N386D. Nature of the assay: method not given.
Assay [16] has as its target c1d1_v2. Nature of the assay: ITC. (ITC needs no label: the signal is the heat of the interaction.)
In assay [17] the target is c1d1_N386D. Description: ITC.
Assay [18] deals with c1d1_b10disulf. Description: ITC.
Assay [19] deals with ODml(D386) (Human immunodeficiency virus type 1 group M subtype B (isolate HXB2) (HIV-1)) (UniProt P04578). Description: SPR, IgG captured by anti-human IgG, construct as analyte.
Assay [20] addresses c1d1_b2021. The description is as above.
Assay [21] concerns the target OD(D386) (Human immunodeficiency virus type 1 group M subtype B (isolate HXB2) (HIV-1)) (UniProt P04578). The assay is described as above.
Assay [22] has as its target c1d1_b10disulf. The assay is described as above.
Assay [23] concerns the target ODml(d1_disulf) (Human immunodeficiency virus type 1 group M subtype B (isolate HXB2) (HIV-1)) (UniProt P04578). The assay is described as above.
Assay [24] addresses ODml(D386) (Human immunodeficiency virus type 1 group M subtype B (isolate HXB2) (HIV-1)) (UniProt P04578). Nature of the assay: SPR.
The target of assay [25] is c1d1_b2021. Nature of the assay: SPR.
In assay [26] the target is c1d1_v2. Description: SPR.
The target of assay [27] is c1d1_minglyc. Description: SPR.
Assay [28] deals with c1d1_N386D. Description: SPR.
In assay [29] the target is ODml(d1_disulf) (Human immunodeficiency virus type 1 group M subtype B (isolate HXB2) (HIV-1)) (UniProt P04578). Description: SPR.
Assay [30] addresses c1d1_N386D. Nature of the assay: ITC, b12 IgG.
Assay [31] concerns the target eOD_VH1-2_v6.0 (HIV-1 HxB2 (engineered)). Nature of the assay: dissociation constant, method not stated.
The target of assay [32] is eOD_N276D_N463D. Nature of the assay: method not stated.
Assay [33] concerns the target eOD_VH1-2_v4.0 (HIV-1 HxB2 (engineered)). Description: method not stated.
The target of assay [34] is eOD_VH1-2_v6.0 (HIV-1 HxB2 (engineered)). Nature of the assay: dissociation constant, SPR (FIG. 2).
In assay [35] the target is eOD_VH1-2_v1.0 (HIV-1 HxB2 (engineered)). Description: SPR.
Assay [36] has as its target core_gp120_VH1-2_v2.0 (HIV-1 BaL (engineered)). Nature of the assay: SPR.
The target of assay [37] is eOD_VH1-2_v6.0 (HIV-1 HxB2 (engineered)). Nature of the assay: SPR, IgG captured by anti-human IgG, eOD as analyte, 1:1 kinetic fit.

In the case of VRC01 Fab, the pKd in assay [1], in assay [2] and in assay [3] was under 7.30 each time.
In the case of VRC01 IgG (mature) (antibody), the pKd (in general, the negative decadic logarithm of the Kd, by convention in mol/L) in assay [4] is 7.05; with eOD_N276D, 7.56; in the assay with eOD_L260F it was 7.84; in the assay with eOD_T257S_L260F_S375W it was 8.07; in the assay with eOD_L260F_N276D it was 7.92; with eOD_VD(-)_g3 it was 8.33. Moreover, the pKd was 8.14 with eOD_VD(-)_g4; 8.55 in the assay with eOD_VD(-)_g8; 8.15 with eOD_VD(-)_g2; 8.34 with eOD_VD(-)_g6; 6.96 with eOD_VD(-)_g7; 7.82 in the assay with eOD_VD(-)_g5. Also, the pKd in the assay with c1d1_v2 [5] is 6.60; with c1d1_minglyc [6] it was 8.12; with c1d1_N386D [7], 6.86; in the assay with c2d1_b10disulf, 6.54; in [8], 8.41; in assay [9] it was 6.53. Further, the pKd in assay [10] is 8.77; with eOD_N276D_N463D [11], 8.40; in assay [12], 6.28; in assay [13], 8.77; in the assay with c1d1_N386D [15], 7.10; in the assay with c1d1_v2 [16], 7.00. Besides, the pKd in the assay with c1d1_N386D [17] was 6.70; in the assay with c1d1_b10disulf [18], 7.00. Moreover, the koff – broadly, a measure of how fast the partners let go of each other – in [10] worked out at 0.000251 s⁻¹. For the same substance, the kon – broadly, the rate constant with which the complex forms – in assay [10] turned out to be 148000 M⁻¹ s⁻¹. In the assay with c1d1_N386D [14], this substance displayed a fold weaker KD than core gp120 of 35 to 50 fold. Besides, the fold weaker affinity than core gp120 in the assay with c1d1_N386D [15] is over 10 fold. Besides, the fold improvement of KD over c1d1 N386D in the assay with c1d1_b10disulf [18] was 2 fold.
With b12 Fab, the pKd in assay [1] was 7.96; in assay [3] it was 7.68.
For the substance b12 IgG (antibody), the pKd with eOD_VD(-)_g3 is 7.67; in the assay with eOD_VD(-)_g4, 7.12; in the assay with eOD_VD(-)_g8, 8.15; with eOD_VD(-)_g2 it was 7.02; in the assay with eOD_VD(-)_g6 it was 6.29; with eOD_VD(-)_g7, 6.38. The pKd was 6.88 in the assay with eOD_VD(-)_g5; 6.28 in assay [19]; 6.92 in the assay with c1d1_b2021 [20]; 7.52 with c1d1_v2 [5]; 7.51 with c1d1_minglyc [6]; 7.23 with c1d1_N386D [7]. Moreover, the pKd with c2d1_b10disulf is 6.83; in assay [21], 5.80; with c1d1_b10disulf [22] it was 6.70; in [23], 6.76; in assay [8] it was 8.35; in assay [9], 5.72. In addition, the values for the pKd with c1d1_b2021 [25] and with c1d1_N386D [30] were 6.83 and 7.19, respectively. Besides, the figures for the fold improvement of KD over OD(D386) in assay [24] and in [29] were 3 fold and 9 fold, respectively. For the same substance, in the assay with c1d1_b2021 [25], the fold weaker KD than c1d1 N386D came to 2.5 fold. Further, the fold improvement of KD over c1d1 N386D in the assay with c1d1_v2 [26] and in the assay with c1d1_minglyc [27] was 2 fold each time. Also, the fold improvement of KD over c1d1 b10disulf with c1d1_v2 [26] was 8 fold. In the assay with c1d1_N386D [28], this substance came in with a fold improvement of KD over OD(386) of 28 fold. Moreover, the fold improvement of KD over ODml came out at 9 fold with c1d1_N386D [28] and 3 fold in assay [29].
In [31], germline NIH45-46 (antibody) gave a pKd of 6.39.
With germline VRC01 (antibody), the pKd with eOD_N276D_N463D [32] was 3.42; with eOD_N276D it was 3.19; in assay [33], 7.00; with eOD_L260F, under 3.30; in the assay with eOD_L260F_N276D, 3.83; in [34] it was 7.36. Moreover, the pKd is 4.40 in [35], 5.80 in assay [36] and 7.36 in [37]. In assay [37], this substance showed a koff of 0.000683 s⁻¹. Also, in assay [37], the kon is 15700 M⁻¹ s⁻¹.
In turn, mature NIH45-46 (antibody) had a pKd in assay [31] of 8.42.
